Data taken from the Immune Epitope Database (IEDB).
Blank lines part the entries; values can stand above or below the sequence they belong to.

Assays:
HLA-B*07:02 [1] = assay: IEDB peptide-MHC binding, purified MHC/competitive/radioactivity; filed as Kd, often an IC50 or EC50 that approximates it; ≥ and ≤ were set here for values at or beyond the usual limits of such assays
HLA-A*26:01 [2] = assay: as above
HLA-A*68:02 = assay: as above
HLA-A*02:02 = assay: as above
HLA-A*02:01 [3] = assay: as above
HLA-A*02:03 = assay: as above
HLA-A*02:06 = assay: as above
HLA-B*51:01 = assay: as above; details: source organism: Dengue virus 4 Philippines/H241/1956
HLA-B*35:01 = assay: as above; details: source organism: Dengue virus 4 Philippines/H241/1956
HLA-B*15:01 [4] = assay: IEDB peptide-MHC binding, purified MHC/competitive/fluorescence; ≥ and ≤ were set here for values at or beyond the usual limits of such assays
HLA-A*24:02 = assay: as above
HLA-A*02:01 [5] = assay: as above
HLA-B*57:01 = assay: IEDB peptide-MHC binding, purified MHC/direct/fluorescence; filed as Kd, often an IC50 or EC50 that approximates it; ≥ and ≤ were set here for values at or beyond the usual limits of such assays; details: source organism: Giardia lamblia ATCC 50803
HLA-B*58:01 = assay: as above
HLA-B*15:01 [6] = assay: as above
HLA-B*53:01 = assay: IEDB peptide-MHC binding, purified MHC/competitive/radioactivity; filed as Kd, often an IC50 or EC50 that approximates it; ≥ and ≤ were set here for values at or beyond the usual limits of such assays; details: source organism: Dengue virus 4 Philippines/H241/1956
HLA-A*26:01 [7] = assay: IEDB peptide-MHC binding, purified MHC/direct/fluorescence; filed as Kd, often an IC50 or EC50 that approximates it; ≥ and ≤ were set here for values at or beyond the usual limits of such assays
HLA-B*44:02 = assay: as above; details: source organism: Shigella flexneri
HLA-A*01:01 = assay: as above
HLA-A*69:01 = assay: as above
HLA-B*27:05 = assay: as above
HLA-A*02:01 [8] = assay: as above
HLA-B*08:01 = assay: as above
HLA-A*31:01 = assay: as above
HLA-B*40:01 = assay: as above
HLA-B*07:02 [9] = assay: as above
HLA-A*03:01 = assay: as above
HLA-A*11:01 = assay: as above
HLA-A*24:03 = assay: as above; details: source organism: Pseudomonas aeruginosa UCBPP-PA14
[10] = source organism: Dengue virus 1 Brazil/97-11/1997
[11] = source organism: Dengue virus 3 Sri Lanka/1266/2000
[12] = source organism: Trypanosoma cruzi
[13] = source organism: Dengue virus 4 Philippines/H241/1956
[14] = source organism: Sudan ebolavirus
[15] = source organism: Giardia lamblia ATCC 50803
[16] = source organism: Shigella flexneri
[17] = source organism: Zaire ebolavirus
[18] = source organism: Pseudomonas aeruginosa UCBPP-PA14
[19] = source organism: Vaccinia virus
[20] = source organism: Vaccinia virus Copenhagen

Sequence: RPAKNGTVMD
- Kd (HLA-B*07:02 [1]; [10]): 0.317 µM

Sequence: ETYQLWTALV
- Kd (HLA-A*26:01 [2]; [11]): 0.0566 µM
- Kd (HLA-A*68:02; [11]): 0.07 nM

- Kd (HLA-A*02:02; source organism: Homo sapiens): 0.134 µM
- Kd (HLA-A*02:01 [3]; source organism: Homo sapiens): 1.16 µM
- Kd (HLA-A*68:02; source organism: Homo sapiens): 50.6 nM
- Kd (HLA-A*02:03; source organism: Homo sapiens): 1.22 µM
- Kd (HLA-A*02:06; source organism: Homo sapiens): ≥ 30.4 µM
Sequence: ELNDRLAVYI

- Kd (HLA-A*02:02; source organism: Homo sapiens): 0.014 µM
- Kd (HLA-A*68:02; source organism: Homo sapiens): 11900 nM
- Kd (HLA-A*02:06; source organism: Homo sapiens): 0.0614 µM
Sequence: QLADETLLKV

Sequence: GVLPLLLLYS
- Kd (HLA-A*02:02; [12]): 1.3 µM
- Kd (HLA-A*02:01 [3]; [12]): 2.37 µM
- Kd (HLA-A*68:02; [12]): 3560 nM
- Kd (HLA-A*02:03; [12]): 0.673 µM
- Kd (HLA-A*02:06; [12]): 0.0149 µM

Sequence: TTPFGQQRV
- Kd (HLA-A*68:02; [13]): 102 nM

Sequence: LPIRYQTPAV
- Kd (HLA-B*51:01): 0.198 µM
- Kd (HLA-B*07:02 [1]; [13]): 0.0267 µM
- Kd (HLA-B*35:01): 0.11 µM

Sequence: LLQLPRDKF
- IC50 (HLA-B*15:01 [4]; [14]): 10.6 µM
- IC50 (HLA-A*24:02; [14]): 4.77 µM
- IC50 (HLA-A*02:01 [5]; [14]): 13.3 µM

Sequence: YMYAATNTH
- Kd (HLA-B*57:01): ≥ 20 µM
- Kd (HLA-B*58:01; [15]): ≥ 20 µM
- Kd (HLA-B*15:01 [6]; [15]): 0.04 µM

Sequence: QVMLLILCV
- Kd (HLA-A*68:02; source organism: Dengue virus 2 Jamaica/1409/1983): 1740 nM

- Kd (HLA-A*02:01 [3]; source organism: Homo sapiens): 0.232 µM
Sequence: GSFGDIYLA

Sequence: HTIENTSANL
- Kd (HLA-A*26:01 [2]; [13]): ≥ 48.9 µM
- Kd (HLA-A*68:02; [13]): 15 nM

Sequence: TTATITPQA
- Kd (HLA-A*68:02; source organism: Dengue virus 1 Nauru/West Pac/1974): 1.12 nM

Sequence: IPVTMTLWYM
- Kd (HLA-B*07:02 [1]; [13]): 0.744 µM
- Kd (HLA-B*53:01): 0.0692 µM
- Kd (HLA-B*35:01): 0.156 µM

Sequence: NVSIPWTHK
- Kd (HLA-A*02:01 [3]; source organism: Hepatitis B virus subtype adw2): ≥ 35 µM

Sequence: DRLHPPNKL
- Kd (HLA-A*26:01 [7]; [16]): ≥ 20 µM
- Kd (HLA-B*44:02): ≥ 20 µM
- Kd (HLA-A*01:01; [16]): ≥ 20 µM
- Kd (HLA-B*58:01; [16]): ≥ 20 µM
- Kd (HLA-B*15:01 [6]; [16]): ≥ 20 µM
- Kd (HLA-A*69:01; [16]): ≥ 20 µM
- Kd (HLA-B*27:05; [16]): ≥ 20 µM
- Kd (HLA-A*02:01 [8]; [16]): ≥ 20 µM
- Kd (HLA-B*08:01; [16]): ≥ 20 µM
- Kd (HLA-A*31:01; [16]): ≥ 20 µM
- Kd (HLA-B*40:01; [16]): 4.25 µM
- Kd (HLA-B*07:02 [9]; [16]): ≥ 20 µM
- Kd (HLA-A*03:01; [16]): ≥ 20 µM
- Kd (HLA-A*11:01; [16]): ≥ 20 µM

Sequence: HMMKDEPVV
- IC50 (HLA-B*15:01 [4]; [17]): 46.3 µM
- IC50 (HLA-A*02:01 [5]; [17]): 8.76 µM

Sequence: FVEGVSGGAW
- Kd (HLA-B*53:01): 0.209 µM

Sequence: GQQFYWPVM
- IC50 (HLA-B*15:01 [4]; [17]): 1.52 µM
- IC50 (HLA-A*24:02; [17]): 0.114 µM
- IC50 (HLA-A*02:01 [5]; [17]): 5.74 µM

- Kd (HLA-A*02:01 [3]; source organism: Homo sapiens): 1 µM
Sequence: GIGILTVIL

- Kd (HLA-A*68:02; source organism: Homo sapiens): ≥ 54300 nM
Sequence: ELEKSKRAL

- Kd (HLA-A*26:01 [7]; [18]): ≥ 20 µM
- Kd (HLA-A*24:03): ≥ 20 µM
- Kd (HLA-A*01:01; [18]): ≥ 20 µM
- Kd (HLA-B*58:01; [18]): ≥ 20 µM
- Kd (HLA-B*15:01 [6]; [18]): ≥ 20 µM
- Kd (HLA-A*69:01; [18]): ≥ 20 µM
- Kd (HLA-B*27:05; [18]): ≥ 20 µM
- Kd (HLA-A*02:01 [8]; [18]): ≥ 20 µM
- Kd (HLA-B*08:01; [18]): ≥ 20 µM
- Kd (HLA-A*31:01; [18]): ≥ 20 µM
- Kd (HLA-B*40:01; [18]): ≥ 20 µM
- Kd (HLA-B*07:02 [9]; [18]): ≥ 20 µM
- Kd (HLA-A*03:01; [18]): ≥ 20 µM
- Kd (HLA-A*11:01; [18]): ≥ 20 µM
Sequence: ASDDLEHWQ

Sequence: AVSGGLNTSV
- Kd (HLA-A*02:01 [3]; source organism: Lassa virus Josiah): ≥ 25 µM

Sequence: VFAPKQKMF
- IC50 (HLA-B*15:01 [4]; [19]): 14 µM
- IC50 (HLA-A*24:02; [19]): 0.0261 µM

Sequence: ISIKLTDSL
- IC50 (HLA-B*15:01 [4]; [20]): 5.59 µM
- IC50 (HLA-A*24:02; [20]): 3.66 µM
- IC50 (HLA-A*02:01 [5]; [20]): 7.32 µM

Sequence: TSLSMTCIAV
- Kd (HLA-A*68:02; [10]): 13500 nM

Sequence: GVPPKVVNY
- IC50 (HLA-B*15:01 [4]; [17]): ≥ 211 µM
- IC50 (HLA-A*02:01 [5]; [17]): ≥ 199 µM
